The values that follow come from publication PMC6393303.

In assay [1] the target is wild-type proliferating cell nuclear antigen (PCNA) (yeast) (UniProt P15873).
The target in assay [2] is pcna-6 (DD41,42AA) mutant PCNA (yeast) (UniProt P15873).
Assay [3] concerns the target wild-type proliferating cell nuclear antigen (PCNA) (yeast) (UniProt P15873). This is another data set of the same source.
For assay [4] the target is unchanged. This is another data set of the same source.
Assay [5] addresses pcna-6 (DD41,42AA) mutant PCNA (yeast) (UniProt P15873). The source holds these as a separate data set.
Assay [6] addresses wild-type proliferating cell nuclear antigen (PCNA) (yeast) (UniProt P15873). The source holds these as a separate data set.

Chain of wild-type proliferating cell nuclear antigen (PCNA) (yeast) (P15873 whole entry): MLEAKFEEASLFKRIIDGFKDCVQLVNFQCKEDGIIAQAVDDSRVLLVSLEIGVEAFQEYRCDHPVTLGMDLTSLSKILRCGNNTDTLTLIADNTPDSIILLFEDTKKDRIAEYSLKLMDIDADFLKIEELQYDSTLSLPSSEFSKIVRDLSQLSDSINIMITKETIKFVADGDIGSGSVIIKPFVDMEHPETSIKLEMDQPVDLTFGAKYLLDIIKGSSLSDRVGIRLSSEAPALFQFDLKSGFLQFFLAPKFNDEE
Chain of pcna-6 (DD41,42AA) mutant PCNA (yeast) (P15873 other isoform, or with tags, fused parts or gaps mutant): as the sequence (P15873 whole entry) above, with D41A, D42A counted along it

As to “mini-Pol δ-DV (variant DNA polymerase δ heterotrimer, exonuclease-deficient D520V) (from UniProt P15436 82-1097; P46957 1-487; P47110 1-350) (complex)”, in assay [1], the nucleotide incorporation rate (rate of primer disappearance, single exponential fit), quench flow, 75/29 template/primer, 300 nM mini-Pol δ-DV, 150 nM PCNA, 75 nM RFC, AMP-CPP, 100 mM NaCl, 30°C is over 350 s⁻¹. In addition, the peak of the normalized product distribution (nucleotides incorporated) at 10 and 50 ms, single processive cycle with heparin trap in assay [2] was 7 nucleotides; in assay [3], 16 nucleotides. Besides, the replication of the T20 template by the fastest moving complexes, quench flow, 100 mM NaCl (nucleotides per second) in assay [4] was 500.
As to “DNA polymerase δ (Pol δ-DV), full-length exonuclease-deficient (D520V) heterotrimer (from UniProt P15436 1-1097; P46957 1-487; P47110 1-350) (complex)”, the single-nucleotide extension rate (k fast), quench flow, 76/29 template/primer, 12°C amounted to 55 s⁻¹ in assay [5] and 183 s⁻¹ in assay [6].
